The values that follow are results of earlier work, collected in paper PMC7538161.

The target of this data set is CaMKII calmodulin-binding element peptide (Peptide A) calmodulin-binding element peptide (Homo sapiens) (UniProt Q9UQM7).
Chain of CaMKII calmodulin-binding element peptide (Peptide A) calmodulin-binding element peptide (Homo sapiens) (Q9UQM7 290-309): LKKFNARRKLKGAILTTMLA

Chain of CaMKII hub hub domain (Q9UQM7 345-475): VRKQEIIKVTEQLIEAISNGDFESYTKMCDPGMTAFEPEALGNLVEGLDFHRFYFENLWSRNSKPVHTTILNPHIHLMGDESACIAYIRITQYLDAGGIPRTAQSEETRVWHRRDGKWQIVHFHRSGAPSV

For the substance “CaMKII hub hub domain (from UniProt Q9UQM7)”, the Kd (as a rule, the concentration at which binding is half-saturated) was 90 µM.
